Where no end group is shown, it is not given here. The star is where a group is joined. Biotin = O=C1N[C@H]2[C@H](CS[C@H]2CCCCC(=O)*)N1
Target: T1, carrier-free recombinant human Netrin-1-His (human, UniProt O95631 25-604)
T1 construct: also called rNetrin-1-His; rNetrin-1
Test: pull-down; Pierce Pull-Down Biotinylated Protein:Protein Interaction Kit; 150 μL of 0.5 mg/mL biotinylated peptide on streptavidin gel; 100 μL of 1 ng/μL recombinant LHBs with 0, 1, 2 or 4 ng/μL rNetrin-1-His; western blot
Conditions: both partners purified

binding result: binds
Binder: Biotin-NSKMYLKTRA (also called C-terminal HBS of LIPG) [biotinylated LIPG-CTD HBS peptide (amino acids 331–340)]

— publication PMC12711026 (PLOS Pathogens, 2025)
